Assay results: FireProtDB (doi:10.1021/acs.biochem.7b00571)

Conditions: Nicotiana tabacum; pH 7.2; 4 °C; Urea; Fluorescence; BES; reversible: yes; whole UniProt chain shown

B1: Salicylic acid-binding protein 2 wild type, Q6RYA0 (protein)
chain: MKEGKHFVLVHGACHGGWSWYKLKPLLEAAGHKVTALDLAASGTDLRKIEELRTLYDYTLPLMELMESLSADEKVILVGHSLGGMNLGLAMEKYPQKIYAAVFLAAFMPDSVHNSSFVLEQYNERTPAENWLDTQFLPYGSPEEPLTSMFFGPKFLAHKLYQLCSPEDLALASSLVRPSSLFMEDLSKAKYFTDERFGSVKRVYIVCTEDKGIPEEFQRWQIDNIGVTEAIEIKGADHMAMLCEPQKLCASLLEIAHKYN
With B1 the “denaturant midpoint (higher = more stable)” value was 2.2 M.
